Experimental findings from the DeepSol protein solubility set are described below.

The nature of this series: soluble on expression in E. coli; label from the status in PepcDB or PDB records.
As for “RVAVLVATHGNNTASSMVSVAKKLLGEGLVEGIDMPLDQSPKIVLDKLTERAKEMDMGRGLLLLVDMGSLTSFAPVISERTGIPVRSIDMVSTATVIEAVRKSNILDMELDSIYDSLKDFRGYGGYNSDDDTLDS”, the “soluble on expression in E. coli” value is listed as “not soluble”. Regarding “RYRGSKWAGKKSIPAFIDNDYNEADQVIENLQRNELTPREIADFIGRELAKGKKKGDIAKEIGKSPAFITQHVTLLDLPEKIADAFNTGRVRDVTVVNELVTAFKKRPEEVEAWLDDDTQEITRGTVKLLREFLDEKGRDPNTVDAFNGQTDAERDAEAGDGQDGEDGDQDGKDAKEK”, the “soluble on expression in E. coli” value is “soluble”. Consider “SAALTAEHFVALQSLLKASSKDVVRQLCQESFSSSCLDSESLLDKTCSSLSVPQGEAAQLLQALHHFTRLVAFRDLSSAEAILALFPENFHQNLKNLLTKIIVEHISTWRAEAQANQISLPRLVDLDWRVDIKTSSDNISRMAVPTCLLQMKIQEDPSLCGEKPSISAVTMELSKETLDTMLDGLGRIRDQLSAVANK”, for which the “soluble on expression in E. coli” value was “soluble”.

For “SAFSGTWQVYAQENYEEFLRAISLPEEVIKLAKDVKPVTEIQQNGSDFTITSKTPGKTVTNSFTIGKEAEITTMDGKKLKCIVKLDGGKLVTRTDRFSHIQEIKAGEMVETLTVGGTTMIRKSKKILVP”, the “soluble on expression in E. coli” value is given as “soluble”. As to “SANPKLLGLELSEAEAIGADSARFEELLLQASKELQQAQTTRPESTQIQPQPGFCIKTNSSEGKVFINICHSPSIPPPADVTEEELLQMLEEDQAGFRIPMSLGEPHAELDAKGQGCTAYDVAVNSDFYRRMQNSDFLRELVITIAREGLEDKYNLQLNPEWRMMKNRPFMGSISQQNIRSEQRPRIQELGDLYTPAPGRAESGPEKPHLNLWLEAPDLLLAEIDLPKLDGALGLSLEIGENRLVMGGPQQLYHLDAYIPLQINSHESKAAFHRKRKQLMVAMPLLLVPS”, the “soluble on expression in E. coli” value is reported as “soluble”. As to “SAPGVPDARAIAAICEQLRQHVADLGVLYIKLHNYHWHIYGIEFKQVHELLEEYYVSVTEAFDTIAERLLQLGAQAPASMAEYLALSGIAEETEKEITIVSALARVKRDFEYLSTRFSQTQVLAAESGDAVTDGIITDILRTLGKAIWMLGATLKA”, the “soluble on expression in E. coli” value was “soluble”. With “SARLADYFIVVGYDHEKPGSGEGLGKIIQRFPQKDWDDTPFPQGIELFCQPGGWQLSRERKQPTFFVVVLTDIDSDRHYCSCLTFYEAEINLQGTKKEEIEGEAKVSGLIQPAEVFAPKSLVLVSRLYYPEIFRACLGLIYTVYVDSLNVSLESLIANLCACLVPAAGGSQKLFSLGAGDRQLIQTPLHDSLPITGTSVALLFQQLGTVAHACNLSTLGGRGGQLTRSGDRDHPG”, the “soluble on expression in E. coli” value is listed as “soluble”. Then “SASHIVGYPRMGPKRELKFALESFWDGKSSAEDLEKVATDLRASIWKQMADAGIKYIPSNTFSYYDQVLDTTAMLGAVPGRYSWTGGEIGFSTYFSMARGNATVPAMEMTKWFDTNYHFIVPELGPNTKFSYSSHKAVNEYKEAKALGVDTVPVLVGPVSYLLLSKPAKGVEKSFALLSLLSSILPVYKEVIAELKAAGATWIQFDEPTLVLDLDSHQLAAFSAAYTELESALSGLNVLIETYFADIPAESYKTLTSLNSVTAYGFDLIRGSKTLDLVKSAGFPSGKYLFAGVVDGRNIWADDLAASLTTLESLEAIVGKDKLVVSTSCSLMHTAVDLVNETKLDSEIKSWLAFAAQKVVEVNALAKALAGQKDEAYFAANTAAQASRRSSPRVTNEEVQKAAAALRGSDHRRATNVSARLDAQQKKLNLPVLPTTTIGSFPQTVELRRVRREYKAKKISEDEYVSAIKEEISKVVKIQEELDIDVLVHGEPERNDMVEYFGEQLSGFAFTANGWVQSYGSRCVKPPIIYGDVSRPNAMTVFWSKMAQSMTSRPMKGMLTGPVTILNWSFVRNDQPRFETCYQIALAIKKEVEDLEAGGIQVIQIDEAALREGLPLRKAEHAFYLDWAVHSFRITNCGVQDTTQIHTHMCYSNFNDIIHSIINMDADVITIENSRSDEKLLSVFREGVKYGAGIGPGVYDIHSPRIPSTEEIADRINKMLAVLDTNILWVNPDCGLKTRKYTEVKPALTNMVLAAKLIRTQLASAK”, with “soluble”; and “SASHQEQSYKAGETRGKAQEKTGEAMGTMGDKTQAAKDKTQETAQSAQQKAHETAQSAKDKTSQAAQTTQERAQESKDKTGSYMSETGEAIKNKAHDAAEYTKETAEAGKEKTSGILGQTGEQVKQMAMGATDAVKHTLGLRTDEGNKEHVSSAPSTTTTTTTRETQRK”, with “soluble”. Turning to “SASLDRVKVLVLGDSGVGKSSLVHLLCQNQVLGNPSWTVGCSVDVRVHDYKEGTPEEKTCYIELWDVGGSVGSASSVKSTRAVFYNSVNGIIFVHDLTNKKSSQNLRRWSLEALNRDLVPTGVLVTNGDYDQEQFADNQIPLLVIGTKLDQIHETKRHEVLTTTAFLAEDFNPEEINLDCTNPRYLAAGSSNAVKLSRFFDKVIEKRYFLREGNQIPGFPDRKRFGAGTLKSLHYD”, the “soluble on expression in E. coli” value is recorded as “soluble”. For the sequence “SAVKAQVLYDFTAEPGNNELTVHEGETLTITNQNVGGGWVEAQNSRGNVGLVPVDYVEVNSASAQAPATQYIDARNQGNNNSTANTQGVNGNEAWTATTWSNSYPADNWNYTEQEPAGNNGSVYSFDEEWDDDSDDGKSTGGYGGSQAEDGGTMQRSGAHSTMKLSLNKFPGFSKTPNPEVYLLTKHITKGNDRLSVYPGEVGPVWLYPQTQLDCVVADPKKGSKMYGLKSYIEYQITPNTTNRPVNHRYKHFDWLYERLVEKFACALPVPGLPDKQVTGRFEEEFIKMRMERLQGWMSRMCRHPVISNSEVFQLFLNYRDEKEWKLGKRKAEKDETVGVKIFSTIDPELPELDPAQVEQKYEVYNQFTRSMDNSVKELLAVGNLHWKRCTGPLQKEYRQIGKAFQNMSSVFNTSGYPRESTLTEALTATGKTYEEIAEVIAAQPRKDLHFLLETNNEYKGLLGCFPDTIGVHKAAIDKVKEADHLVMTNKISQQDKHTMEKNLSTMSYALQAEMNHFHSNRIYDYNRLMQFYLEEQVKFYETIAEKLKKALGQYTTI”, the “soluble on expression in E. coli” value was “soluble”. Turning to “SDFVNNLDTDTSLSILSCLDDPSDIVRASAVSRSWRQFVVKYSLSKNLCLKLFHQLSNVDHIIETSNDRNGESSEAGSSSLMDTRLLEKEHRAFALLARGCMSSPIESCIADAIRASSTDNYPVESILNTLEKRDRIGRTPSYWSSTGQHKTTVPESLLYKLIGDLCLITEVSIHPFQAYFQRGHPIYSSHYVRFRLGHEKDNSPHYNNSQDKKGEPGKSSIESNYVWTYTSQEFSMAQENRLQSFQLPEPVLCIGGYLLVEFLGRVQTQEMDGQYYICVSHVKVEGRSLAKSFRVENVDDNGKFGLKVLSYNDPKKMEEMDAEAGQDMDAEAGQSQLRNLEQLLNLLHRHPLDVVDYVWPDESDDEYAESEDEAEP”, the “soluble on expression in E. coli” value is given as “soluble”. As to “SDIAIHHPWIRRPFFPFHSPSRLFDQFFGEHLLESDLFPTSTSLSPFYLRPPSFLRAPSWFDTGLSEMRLEKDRFSVNLDVKHFSPEELKVKVLGDVIEVHGKHEERQDEHGFISREFHRKYRIPADVDPLTITSSLSSDGVLTVNGPRKQVSGPERTIPITREEKPAVTAAPKK”, the “soluble on expression in E. coli” value is on record as “soluble”. The entry for “SDLQTRFRPPGAEISIIGLSASLAELVPPSNIENAPQIPRGEDGFFERVGNATREMLVYVGSVVRFIKECVLVFKLGINRRKNVNWTTVSNIATRAGADAVP” is “not soluble”.

As for “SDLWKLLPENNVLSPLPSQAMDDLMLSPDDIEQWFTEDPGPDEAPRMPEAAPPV”, the “soluble on expression in E. coli” value was “soluble”. Then “SDPNKAEISRLEVLPQDLLGEIVAKIGAKYAEDYHNCILSCKELGASANDERVLKTLNLAPLVKKPLSCRKHLLIMKKCLANNNPDAHYIKGIIWYFNLDHCDVGLHHIGIAAN”, with “soluble”; and “SDSAWTALDMETQTMLKTAIKDPKTVDLEKLSNAVVEHSLKDLSFCKDAGRMCYAVVQAEAQKTASSVFRRNLLNRLQQEFIAREETRKRSMQEWVCVVTFICSIFDYIKVNNSPIAALVDPVYDCLFRLAQPDSLMNEEEVDCLVVQLHRVGEQLEQTNSERMNQLFYLLRDGFLLQEDLSSMTRLLLLEILEFRASGWTLSETAHKYYYSEVAD”, with “soluble”. “SDSDSGEQSEGELSPGHESFNSKSLALQAQKKILSKMATMAVANLLTDDTSSEILDELYKASREYTKSKKEAHKIIKDVIKIALKIGILYRNHQFSPEEMETVERFKKKMNQAAMTVVSFYEVEYTFDRGILSELLLECRDLLHELVEHHLTMRSHGRIDHVFNHFADVDFLTELYGPSEDYRLNLRKICDGINKLLDEGTL”: the “soluble on expression in E. coli” value is recorded as “soluble”. On to “SEACVSVTSSILSSMDPTVDPCHDFFSYACGGWIKANPVPDGHSRWGTFSNLWEHNQAIIKHLLENSTASVSEAERKAQVYYRACMNETRIEELRAKPLMELIERLGGWNITGPWAKDNFQDTLQVVTAHYRTSPFFSVYVSADSKNSNSNVIQVDQSGLGLPSRDYYLNKTENEKVLTGYLNYMVQLGKLLGGGDEEAIRPQMQQILDFETALANITIPQEKRRDEELIYHKVTAAELQTLAPAINWLPFLNTIFYPVEINESEPIVVYDKEYLEQISTLINTTDRCLLNNYMIWNLVRKTSSFLDQRFQDADEKFMEVMYGTKKTSLPRWKFCVSDTENNLGFALGPMFVKATFAEDSKSIATEIILEIKKAFEESLSTLKWMDEETRKSAKEKADAIYNMIGYPNFIMDPKELDKVFNDYTAVPDLYFENAMRFFNFSWRVTADQLRKAPNRDQWSMTPPMVNAYYSPTKNEIVFPAGILQAPFYTRSSPKALNFGGIGVVVGHELTHAFDDQGREYDKDGNLRPWWKNSSVEAFKRQTECMVEQYSNYSVNGEPVNGRHTLGENIADNGGLKAAYRAYQNWVKKNGAEHSLPTLGLTNNQLFFLGFAQVWCSVRTPESSHEGLITDPHSPSRFRVIGSLSNSKEFSEHFRCPPGSPMNPPHKCEVW”, for which the “soluble on expression in E. coli” value was “soluble”.

On to “SEADASVDMFSKVLEHQLLQTTKLVEEHLDSEIQKLDQMDEDELERLKEKRLQALRKAQQQKQEWLSKGHGEYREIPSERDFFQEVKESENVVCHFYRDSTFRCKILDRHLAILSKKHLETKFLKLNVEKAPFLCERLHIKVIPTLALLKDGKTQDYVVGFTDLGNTDDFTTETLEWRLGSSDILNYSGNLMEPPFQNQKKFGTNFTKLEKKTIRGKKYDSDSDDD”, for which the “soluble on expression in E. coli” value is listed as “soluble”. The entry for “SEAIQTLLDRKLPDEELEQINQACLSVKGVLGVHQLRTRMSGPTRFIQLHLELDDNLRLIEAHYIADKVEDNLLALFPEADVLIHQDPLSVVFGPEKEQKAQDW” is “not soluble”. As to “SEEEDDEVMVREGLMASQREIFSISGPIHLTSIDWNNSYHRTSVASCLVQAVYTLERDRQQNRIGLKSQANHWWEFFNFTLAETLIDDSDGSIYGAVFEYKHFFSYNYHHTPHSKPPPRHVIAFRGTILKPHSRSRDLKLDLRCIRDSLHDSTRFVHAIQVIQSAVAKTGNAAVWLAGHSLGAAVALLAGKIMTRSGFPLESYLFNPPFSSIPIEKLVKSEKLKHGVRFAGSLVKAGVAIAVKGRHHNKGQEDDSFMKLASWIPYLYLNPLDTICSEYIGYFKHRNKMFEIGAGKIERIATRNSLRSLLSGGGGGGSSSDSSSEPLHLLPSAYMTINASKSPNFKRAHGIHQWWDPMFNGEYVLHQFNN”, the “soluble on expression in E. coli” value was “soluble”. “SEEGSNKREGYNDQKQQARAGCGKELAVEEMIAAVSERKKGCCPPPPPPHGAPATPARNRPQTQGRGAAAPVVGWPPIRSFRRNLASSSSSKHSPEPQNDNANAKVTLTCKKNPLVKINMDGIPIGRKIDLAAYNSYDGLSSAVKQLFHGFLQAQKDQTNAQIAQQGADDKIFYQLLDGSGEYTLVYEDSEGDRMLVGDVPWKVFVSTAKRLRVLRSSELSHTLIGATARV”: the “soluble on expression in E. coli” value was “soluble”.
